Measurements: PMC7331920

Experiments:
JADE1 PHD finger 1 = experiment: fluorescence polarisation
[1] = molecular target: PHF14 PHD finger 1 (GST-fusion protein); experiment: fluorescence polarisation

Kd (JADE1 PHD finger 1) [µM]	Kd [1] [µM]	Substance
32	7	H3K4me0 peptide (unmodified / wild-type H3 tail peptide)
> 100		H3K4me3 peptide
> 100		H3K4norleucine peptide
